In data set [1] the target is T1, SEQ ID NO: 5 peptide.
T1 chain: PTLDLFRELLNELLQKLKK

Data set [2] addresses T2, SEQ ID NO: 12 peptide.
T2 chain: EVLKNLLEKLLEKLKELF

Data set [3] deals with T3, SEQ ID NO: 2 peptide.
T3 chain: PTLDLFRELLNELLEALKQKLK

Data set [4] has as its target T4, SEQ ID NO: 13 peptide.
T4 chain: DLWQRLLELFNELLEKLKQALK

The target of data set [5] is T5, SEQ ID NO: 3 peptide.
T5 chain: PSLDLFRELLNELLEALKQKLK

The target in data set [6] is T6, SEQ ID NO: 6 peptide.
T6 chain: PVLDLFRELLEELLQKLKK

Data set [7] deals with T7, SEQ ID NO: 14 peptide.
T7 chain: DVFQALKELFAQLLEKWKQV

The target in data set [8] is T8, SEQ ID NO: 4 peptide.
T8 chain: PVLDLFRELLNELLQKLKK

B1: recombinant human LCAT (lecithin:cholesterol acyltransferase) (protein)
chain: FWLLNVLFPPHTTPKAELSNHTRPVILVPGCLGNQLEAKLDKPDVVNWMCYRKTEDFFTIWLDLNMFLPLGVDCWIDNTRVVYNRSSGLVSNAPGVQIRVPGFGKTYSVEYLDSSKLAGYLHTLVQNLVNNGYVRDETVRAAPYDWRLEPGQQEEYYRKLAGLVEEMHAAYGKPVFLIGHSLGCLHLLYFLLRQPQAWKDRFIDGFISLGAPWGGSIKPMLVLASGDNQGIPIMSSIKLKEEQRITTTSPWMFPSRMAWPEDHVFISTPSFNYTGRDFQRFFADLHFEEGWYMWLQSRDLLAGLPAPGVEVYCLYGVGLPTPRTYIYDHGFPYTDPVGVLYEDGDDTVATRSTELCGLWQGRQPQPVHLLPLHGIQHLNMVFSNLTLEHINAILLGAYRQGPPASPTASPEPPPPE
Consider B1, for which the RELATIVE ACTIVITY (Percent activity relative to SEQ ID: 1); DHE esterification by rhLCAT with peptide mHDL substrate in data set [1] was 65%; in data set [2], 21%; in data set [3], 94%; in data set [4], 0%; in data set [5], 87%; in data set [6] it was 65%. In addition, the RELATIVE ACTIVITY (Percent activity relative to SEQ ID: 1); DHE esterification by rhLCAT with peptide mHDL substrate worked out at 0% in data set [7] and 86% in data set [8].

Values taken from patent US20140024061.
